# Biological target: tasl_human TASL (UniProt Q9HAI6)
row,Substance,effect of a mutation on the interaction
1,"Solute carrier family 15 member 4 (Homo sapiens), Q8N697 E465A",disrupting interaction strength
2,"Solute carrier family 15 member 4 (Homo sapiens), Q8N697 L14A;L15A",with no effect
3,"Solute carrier family 15 member 4 (Homo sapiens), Q8N697 E44A",with no effect

# Further lines, results first:
row,effect of a mutation on the interaction,Substance
1,with no effect,"Solute carrier family 15 member 4 (Homo sapiens), Q8N697 E47A"
2,disrupting interaction strength,"Solute carrier family 15 member 4 (Homo sapiens), Q8N697 E465K"

# From IntAct's records for PubMed 32433612
